Consider one substance from patent US11116820B2, “Treatment of hyperinsulinemic hypoglycemia with exendin-4 derivatives” (priority 2016, dated 2021).

For test [1], the target named is T1, mouse GLP-1 receptor (Mus musculus, UniProt O35659).
T1 construct: cells that endogenously express the mouse GLP-1 receptor; endogenous in cells; host or cells: βTC6 cells (mouse)
T1 sequence (O35659 22-463): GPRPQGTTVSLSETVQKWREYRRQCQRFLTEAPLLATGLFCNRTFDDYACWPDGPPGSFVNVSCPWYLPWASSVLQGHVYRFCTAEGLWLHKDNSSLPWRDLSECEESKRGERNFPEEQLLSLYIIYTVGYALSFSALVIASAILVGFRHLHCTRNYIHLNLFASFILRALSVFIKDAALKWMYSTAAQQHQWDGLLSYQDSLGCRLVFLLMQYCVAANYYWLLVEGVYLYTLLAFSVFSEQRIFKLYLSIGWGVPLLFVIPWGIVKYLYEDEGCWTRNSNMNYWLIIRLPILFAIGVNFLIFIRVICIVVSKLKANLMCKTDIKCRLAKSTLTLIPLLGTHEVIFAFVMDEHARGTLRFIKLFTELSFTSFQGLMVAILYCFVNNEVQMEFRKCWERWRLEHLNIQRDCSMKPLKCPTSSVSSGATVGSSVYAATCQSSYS
Briefly: cAMP functional assay (HTRF), agonist mode, in βTC6 cells. Format: cell-based. The settings on record: peptides dissolved at 10 mM in PBS, 10 minutes at room temperature. As for the experimental part:
The agonistic and antagonistic effects of each of the four peptides on the receptor GLP-1 was tested in βTC6 cells, which are cells that endogenously express the mouse GLP-1 receptor, in a cAMP functional assay. […] Following the incubation period, the resulting intracellular level of cAMP was measured by homogenous time resolved fluorescence (HTRF).
On the technique in general: TR-FRET usually uses a lanthanide donor and a delayed reading to cut background.

The target of test [2] is T1, mouse GLP-1 receptor. Briefly: cAMP functional assay (HTRF), antagonist mode, βTC6 cells stimulated with 0.3 nM GLP-1 (7-37). It counts as cell-based. As to conditions: 10 minutes at room temperature. As for the experimental part: The agonistic and antagonistic effects of each of the four peptides on the receptor GLP-1 was tested in βTC6 cells, which are cells that endogenously express the mouse GLP-1 receptor, in a cAMP functional assay.
Following the incubation period, the resulting intracellular level of cAMP was measured by HTRF.

In the case of “pegylated exendin(9-39): pegylated form of exendin(9-39), tested as comparator peptide”, the “agonistic activity on GLP-1 receptor (intracellular cAMP)” value with mouse GLP-1 receptor [1] is listed as “None of the four peptides exhibited agonistic activity”. Besides, the “antagonistic activity on GLP-1 receptor, overall (in words)” value with mouse GLP-1 receptor [2] is “did not exhibit significant antagonistic activity”.
